Target: asialoglycoprotein receptor (UniProt P34927)
Test: cell-based or functional assay

UniProt P34927, sequence (P34927 whole entry, chain 1 of 2): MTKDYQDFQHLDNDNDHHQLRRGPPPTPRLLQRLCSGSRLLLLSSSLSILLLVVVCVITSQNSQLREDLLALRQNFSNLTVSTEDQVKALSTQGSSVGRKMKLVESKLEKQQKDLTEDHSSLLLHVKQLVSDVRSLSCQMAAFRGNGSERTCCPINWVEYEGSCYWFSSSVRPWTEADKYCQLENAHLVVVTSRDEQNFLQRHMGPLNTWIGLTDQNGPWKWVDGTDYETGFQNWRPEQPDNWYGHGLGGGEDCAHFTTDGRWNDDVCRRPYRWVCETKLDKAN
UniProt P34927, sequence (P24721 whole entry, chain 2 of 2, further chain): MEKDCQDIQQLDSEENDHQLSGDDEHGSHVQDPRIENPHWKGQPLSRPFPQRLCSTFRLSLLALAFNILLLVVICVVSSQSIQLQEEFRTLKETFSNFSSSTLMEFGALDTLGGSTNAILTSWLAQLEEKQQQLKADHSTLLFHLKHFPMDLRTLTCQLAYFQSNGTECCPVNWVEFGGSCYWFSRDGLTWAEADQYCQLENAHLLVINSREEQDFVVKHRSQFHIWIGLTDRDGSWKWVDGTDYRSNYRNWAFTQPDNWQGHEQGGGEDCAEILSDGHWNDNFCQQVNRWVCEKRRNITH

inhibition of uptake/expression of the cis pT/GFP/SB in the liver (confocal microscopy of GFP, mice coadministered asialofetuin): > 80%
Substance: asialofetuin (from UniProt P12763 19-359) (ligand)

Source: patent publication US20020115216A1
